Substrate: CCCCCCCCCCCCCCCC(=O)Oc1ccc([N+](=O)[O-])cc1
Experiment: purified protein
Format: biochemical, Thermomyces lanuginosus
Conditions: free enzyme, 50 mM Tris pH 9.0, 60 °C, 10-60 mM substrate, Triton X-100 and gum acacia in assay buffer

B1: Thermomyces lanuginosus lipase (Thermomyces lanuginosus) (protein)
chain: EVSQDLFNQFNLFAQYSAAAYCGKNNDAPAGTNITCTGNACPEVEKADATFLYSFEDSGVGDVTGFLALDNTNKLIVLSFRGSRSIENWIGNLNFDLKEINDICSGCRGHDGFTSSWRSVADTLRQKVEDAVREHPDYRVVFTGHSLGGALATVAGADLRGNGYDIDVFSYGAPRVGNRAFAEFLTVQTGGTLYRITHTNDIVPRLPPREFGYSHSSPEYWIKSGTLVPVTRNDIVKIEGIDATGGNNQPNIPDIPAHLWYFGLIGTCL
notes: free enzyme
Protein B1 has a Km of 3.1 mM and a Vmax of 20.1 µmol/min/mg.

— publication PMC3772012, “Enzyme Immobilisation on Amino-Functionalised Multi-Walled Carbon Nanotubes: Structural and Biocatalytic Characterisation” (PLoS ONE, 2013)
